Key:
[1] = target: human CXCR6[DRF] (CXC-chemokine receptor 6, wild type with the DRF motif) (human, UniProt O00574 1-342); experiment: cell-based or functional assay
[2] = target: T1, human CXCR6[DRY] (DRF motif mutated to DRY) (human, UniProt O00574 1-342, DRF to DRY (F128^3.51)); experiment: cell-based or functional assay
T1 sequence (looked up): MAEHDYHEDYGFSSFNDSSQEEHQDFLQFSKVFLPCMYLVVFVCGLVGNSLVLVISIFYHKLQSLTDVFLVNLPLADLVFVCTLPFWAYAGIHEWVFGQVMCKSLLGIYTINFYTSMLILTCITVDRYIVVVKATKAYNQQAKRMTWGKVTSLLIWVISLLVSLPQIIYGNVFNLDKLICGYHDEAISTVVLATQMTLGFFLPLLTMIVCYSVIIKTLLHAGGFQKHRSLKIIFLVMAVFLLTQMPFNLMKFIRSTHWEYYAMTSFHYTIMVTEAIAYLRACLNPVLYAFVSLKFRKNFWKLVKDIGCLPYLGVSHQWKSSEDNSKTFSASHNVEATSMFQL

B1: human CXCL16-Fc fusion protein (Fc fusion, UniProt Q9H2A7 30-205, looked up)
chain: NEGSVTGSCYCGKRISSDSPPSVQFMNRLRKHLRAYHRCLYYTRFQLLSWSVCGGNKDPWVQELMSCLDLKECGHAYSGIVAHQKHLLPTSPPISQASEGASSDIHTPAQMLLSTLQSTQRPTLPVGSLSSDKELTRPNETTIHTAGHSLAAGPEAGENQKQPEKNAGPTARTSAT
For B1, the “adhesion of THP-1 cells expressing the receptor to immobilized CXCL16-Fc for 30 min, normalized to cells adhering to anti-human-Fc” value [1] was ~4 fold, the “adhesion of THP-1 cells to immobilized CXCL16-Fc for 5, 15 and 30 min, CXCR6[DRF] cells compared to CXCR6[DRY] cells” value [1] was 2 fold and the “adhesion of THP-1 cells expressing the receptor to immobilized CXCL16-Fc for 30 min, normalized to cells adhering to anti-human-Fc” value [2] was ~4 fold.
